From the supplement of paper PMC10567573

B1: ZNF8 (parent)
chain: RIHTGERPYMCKECGKAFSQNSSL

Variants of: B1
Assay: protein stability index of a GFP-peptide fusion (GPS, HEK-293T) (PSI 1-6); higher = more stable
Conditions: c terminus: a fixed tail appended
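Further: lentivirally expressed fusions sorted by FACS into six bins by GFP to DsRed ratio, PSI derived from sequencing read proportions per bin multiplied by bin number.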

Row | Variant | protein stability index
1 | RIHTGERPYMCKECAKAFSQNSSL [G15A] | 3.37
2 | RIHTGERPYMCKECLKAFSQNSSL [G15L] | 3.05
3 | RIHTGERPYMCKECCKAFSQNSSL [G15C] | 2.16
4 | RIHTGERPYMCKECYKAFSQNSSL [G15Y] | 1.62
5 | RIHTGERPYMCKECNKAFSQNSSL [G15N] | 2.33
6 | RIHTGERPYMCKECTKAFSQNSSL [G15T] | 3.05
7 | RIHTGERPYMCKECSKAFSQNSSL [G15S] | 3.2
8 | RIHTGERPYMCKECDKAFSQNSSL [G15D] | 3.25
9 | RIHTDERPYMCKECGKAFSQNSSL [G5D] | 2.64
10 | RIHTTERPYMCKECGKAFSQNSSL [G5T] | 2.31
11 | RIHTKERPYMCKECGKAFSQNSSL [G5K] | 2.5
12 | RIHTLERPYMCKECGKAFSQNSSL [G5L] | 2.01
13 | RIHTGERPYMCKECGKAFSVNSSL [Q20V] | 1.79
14 | RIHTGERPYMCKECGKAFSPNSSL [Q20P] | 2.74
15 | RIHTGERPYMCKECGKAFSENSSL [Q20E] | 3.19
16 | RIHTGERPYMCKECGKAFSINSSL [Q20I] | 2.4
17 | RILTGERPYMCKECGKAFSQNSSL [H3L] | 2.25
18 | RIGTGERPYMCKECGKAFSQNSSL [H3G] | 3.12
19 | RIMTGERPYMCKECGKAFSQNSSL [H3M] | 2.49
20 | RIITGERPYMCKECGKAFSQNSSL [H3I] | 2.74
21 | RIHHGERPYMCKECGKAFSQNSSL [T4H] | 2.43
22 | RIHKGERPYMCKECGKAFSQNSSL [T4K] | 2.03
23 | RIHSGERPYMCKECGKAFSQNSSL [T4S] | 2.81
24 | RIHPGERPYMCKECGKAFSQNSSL [T4P] | 3.3

Row | Variant | protein stability index
25 | RAHTGERPYMCKECGKAFSQNSSL [I2A] | 2.41
26 | RFHTGERPYMCKECGKAFSQNSSL [I2F] | 2.5
27 | RNHTGERPYMCKECGKAFSQNSSL [I2N] | 3.13
28 | RHHTGERPYMCKECGKAFSQNSSL [I2H] | 2.38
29 | RKHTGERPYMCKECGKAFSQNSSL [I2K] | 2.51
30 | RWHTGERPYMCKECGKAFSQNSSL [I2W] | 2.33
31 | RYHTGERPYMCKECGKAFSQNSSL [I2Y] | 2.73
32 | RCHTGERPYMCKECGKAFSQNSSL [I2C] | 2.85
33 | RSHTGERPYMCKECGKAFSQNSSL [I2S] | 2.75
34 | RDHTGERPYMCKECGKAFSQNSSL [I2D] | 2.43
35 | RIHTGERPYMCKECGKAFSQISSL [N21I] | 2.04
36 | RIHTGERPYMCKECGKAFSQKSSL [N21K] | 2.75
37 | RIHTGERPYMCKECGKAFSQYSSL [N21Y] | 1.5
38 | RIHTGERPYMCKECGKAFSQRSSL [N21R] | 2.26
39 | RIHTGERPYMCKECGKAFSQASSL [N21A] | 1.94
40 | RIHTGERPYMCKECGKAFSQPSSL [N21P] | 2.44
41 | RIHTGERPYMCKECGKAFSQNSSD [L24D] | 3.56
42 | RIHTGERPYMCKECGKAFSQNSSN [L24N] | 3.37
43 | RIHTGERPYMCKECGKAFSQNSSV [L24V] | 2.6
44 | RIHTGERPYMCKECGKAFSQNSSW [L24W] | 2.73
45 | RIHTGERPYMCKECGKAFSQNSSE [L24E] | 3.68
46 | RIHTGERPYMCKECGKAFSQNSST [L24T] | 3.43
47 | RIHTGERPYMCKECGKAFSQNSSA [L24A] | 2.99
48 | RIHTGERPYMCKECGKAFSQNSSC [L24C] | 3.17

Row | Variant | protein stability index
49 | RIHTGERPYMCKECGKAFSQNSSR [L24R] | 2.55
50 | RIHTGERPYCCKECGKAFSQNSSL [M10C] | 3.11
51 | RIHTGERPYFCKECGKAFSQNSSL [M10F] | 2.31
52 | RIHTGERPYKCKECGKAFSQNSSL [M10K] | 1.75
53 | RIHTGERPYPCKECGKAFSQNSSL [M10P] | 2.62
54 | RIHTGERPYACKECGKAFSQNSSL [M10A] | 2.64
55 | RIHTGERPYMCKECGKAFSQNSRL [S23R] | 1.66
56 | RIHTGERPYMCKECGKAFSQNSHL [S23H] | 2.9
57 | RIHTGERPYMCKECGKAFSQNSPL [S23P] | 2.48
58 | RIHTGERPYMCKECGKAFSQNSGL [S23G] | 2.3
59 | RIHTGERPYMCKECGKAFSQNSAL [S23A] | 2.26
60 | RIHTGERPYMCKECGKAFSQNSLL [S23L] | 1.77
61 | RIHTGERPYMCKEMGKAFSQNSSL [C14M] | 2.29
62 | RIHTGERPYMCKEEGKAFSQNSSL [C14E] | 3.07
63 | RIHTGERPYMCKEVGKAFSQNSSL [C14V] | 2.72
64 | RIHTGERPYMCKERGKAFSQNSSL [C14R] | 2.51
65 | RIHTGERPYMCKEAGKAFSQNSSL [C14A] | 3.1
66 | RIHTGERPYMCKENGKAFSQNSSL [C14N] | 3.15
67 | RIHTGERPYMCKEIGKAFSQNSSL [C14I] | 1.93
68 | RIHTGERPYMCKESGKAFSQNSSL [C14S] | 2.74
69 | RIHTGERLYMCKECGKAFSQNSSL [P8L] | 2.34
70 | RIHTGERTYMCKECGKAFSQNSSL [P8T] | 2.96
71 | RIHTGERSYMCKECGKAFSQNSSL [P8S] | 2.44
72 | RIHTGERWYMCKECGKAFSQNSSL [P8W] | 2.19

Row | Variant | protein stability index
73 | RIHTGERCYMCKECGKAFSQNSSL [P8C] | 2.31
74 | RIHTGERIYMCKECGKAFSQNSSL [P8I] | 2.43
75 | RIHTGERKYMCKECGKAFSQNSSL [P8K] | 2.03
76 | RIHTGEREYMCKECGKAFSQNSSL [P8E] | 3.22
77 | RIHTGERPAMCKECGKAFSQNSSL [Y9A] | 3.88
78 | RIHTGERPSMCKECGKAFSQNSSL [Y9S] | 2.2
79 | RIHTGERPWMCKECGKAFSQNSSL [Y9W] | 2.19
80 | RIHTGERPQMCKECGKAFSQNSSL [Y9Q] | 2.75
81 | RIHTGERPNMCKECGKAFSQNSSL [Y9N] | 2.7
82 | RIHTGERPPMCKECGKAFSQNSSL [Y9P] | 2.48
83 | RIHTGERPKMCKECGKAFSQNSSL [Y9K] | 1.83
84 | RIHTGERPVMCKECGKAFSQNSSL [Y9V] | 2.71
85 | RIHTGERPYMCKECGKEFSQNSSL [A17E] | 2.95
86 | RIHTGERPYMCKECGKPFSQNSSL [A17P] | 2.09
87 | RIHTGERPYMCKECGKGFSQNSSL [A17G] | 2.42
88 | RIHTGERPYMCKECGKSFSQNSSL [A17S] | 2.94
89 | RIHTGERPYMCKECGKDFSQNSSL [A17D] | 2.84
90 | RIHTGERPYMCKECGKNFSQNSSL [A17N] | 2.99
91 | RIHTGERPYMCCECGKAFSQNSSL [K12C] | 2.16
92 | RIHTGERPYMCWECGKAFSQNSSL [K12W] | 1.51
93 | RIHTGERPYMCTECGKAFSQNSSL [K12T] | 2.15
94 | RIHTGERPYMCHECGKAFSQNSSL [K12H] | 1.96
